In publication PMC3504387 (Chemmedchem, 2012):
Where no end group is shown, it is not given here. The star is where a group is joined. Biotin = O=C1N[C@H]2[C@H](CS[C@H]2CCCCC(=O)*)N1; Ahx = NCCCCCC(=O)O

T1: GST–PPARγ fusion protein (purified ligand binding domain of PPARγ)
T1 chain: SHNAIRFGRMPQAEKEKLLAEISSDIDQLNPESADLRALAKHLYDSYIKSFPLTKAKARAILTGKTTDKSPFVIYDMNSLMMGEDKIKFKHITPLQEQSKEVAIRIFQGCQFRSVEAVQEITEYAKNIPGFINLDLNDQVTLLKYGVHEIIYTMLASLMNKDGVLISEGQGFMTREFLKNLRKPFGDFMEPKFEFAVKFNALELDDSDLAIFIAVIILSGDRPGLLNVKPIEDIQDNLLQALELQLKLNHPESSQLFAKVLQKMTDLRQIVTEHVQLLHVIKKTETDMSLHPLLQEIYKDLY

T2: GST–PPARα fusion protein (purified ligand binding domain of PPARα)
T2 sequence (Q07869 whole entry, species assumed, looked up): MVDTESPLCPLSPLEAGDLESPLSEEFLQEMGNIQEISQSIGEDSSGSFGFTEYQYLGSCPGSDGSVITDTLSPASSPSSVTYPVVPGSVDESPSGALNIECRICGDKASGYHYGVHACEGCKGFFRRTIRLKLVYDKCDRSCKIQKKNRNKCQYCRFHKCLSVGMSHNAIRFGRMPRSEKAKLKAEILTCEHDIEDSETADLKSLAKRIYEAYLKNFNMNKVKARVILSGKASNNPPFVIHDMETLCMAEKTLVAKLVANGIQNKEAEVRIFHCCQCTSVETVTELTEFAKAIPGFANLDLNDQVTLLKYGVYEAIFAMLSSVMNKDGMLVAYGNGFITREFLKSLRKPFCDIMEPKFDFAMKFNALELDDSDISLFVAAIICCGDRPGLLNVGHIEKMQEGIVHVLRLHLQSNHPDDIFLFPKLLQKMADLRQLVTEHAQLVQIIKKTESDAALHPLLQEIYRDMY


Assays:
[1] = molecular target: T1, GST–PPARγ fusion protein (purified …); test: FRET or BRET; homogeneous TR-FRET as a1, 12-concentration dose–response of edaglitazone; the EC50 is of the compound; delta ratio in % of the reference compound at 10 μM (RO4899100 for PPARα, edaglitazone for PPARγ); conditions: both partners purified
[2] = molecular target: T2, GST–PPARα fusion protein (purified ligand binding domain of PPARα); test: FRET or BRET; homogeneous TR-FRET as a1, 12-concentration dose–response of rosiglitazone; the EC50 is of the compound; delta ratio in % of the reference compound at 10 μM (RO4899100 for PPARα, edaglitazone for PPARγ)
[3] = molecular target: T2, GST–PPARα fusion protein (purified ligand binding domain of PPARα); test: FRET or BRET; homogeneous TR-FRET as a1, 12-concentration dose–response of aleglitazar; the EC50 is of the compound; delta ratio in % of the reference compound at 10 μM (RO4899100 for PPARα, edaglitazone for PPARγ)
[4] = molecular target: T2, GST–PPARα fusion protein (purified ligand binding domain of PPARα); test: FRET or BRET; homogeneous TR-FRET as a1, 12-concentration dose–response of RO4899100; the EC50 is of the compound; delta ratio in % of the reference compound at 10 μM (RO4899100 for PPARα, edaglitazone for PPARγ)
[5] = molecular target: T1, GST–PPARγ fusion protein (purified …); test: FRET or BRET; homogeneous TR-FRET as a1, 12-concentration dose–response of rosiglitazone; the EC50 is of the compound; delta ratio in % of the reference compound at 10 μM (RO4899100 for PPARα, edaglitazone for PPARγ); conditions: both partners purified
[6] = molecular target: T1, GST–PPARγ fusion protein (purified …); test: FRET or BRET; homogeneous TR-FRET as a1, 12-concentration dose–response of aleglitazar; the EC50 is of the compound; delta ratio in % of the reference compound at 10 μM (RO4899100 for PPARα, edaglitazone for PPARγ); conditions: both partners purified
[7] = molecular target: T1, GST–PPARγ fusion protein (purified …); test: FRET or BRET; homogeneous TR-FRET as a1, 12-concentration dose–response of farglitazar; the EC50 is of the compound; delta ratio in % of the reference compound edaglitazone at 10 μM; conditions: both partners purified
[8] = molecular target: T1, GST–PPARγ fusion protein (purified …); test: FRET or BRET; homogeneous TR-FRET as a1, 12-concentration dose–response of pioglitazone; the EC50 is of the compound; delta ratio in % of the reference compound at 10 μM (RO4899100 for PPARα, edaglitazone for PPARγ); conditions: both partners purified
[9] = molecular target: T2, GST–PPARα fusion protein (purified ligand binding domain of PPARα); test: FRET or BRET; homogeneous TR-FRET as a1, 12-concentration dose–response of muraglitazar; the EC50 is of the compound; delta ratio in % of the reference compound at 10 μM (RO4899100 for PPARα, edaglitazone for PPARγ)
[10] = molecular target: T2, GST–PPARα fusion protein (purified ligand binding domain of PPARα); test: FRET or BRET; homogeneous TR-FRET as a1, 12-concentration dose–response of fenofibric acid; the EC50 is of the compound; delta ratio in % of the reference compound RO4899100 at 10 μM
[11] = molecular target: T1, GST–PPARγ fusion protein (purified …); test: FRET or BRET; homogeneous TR-FRET as a1, 12-concentration dose–response of tesaglitazar; the EC50 is of the compound; delta ratio in % of the reference compound at 10 μM (RO4899100 for PPARα, edaglitazone for PPARγ); conditions: both partners purified
[12] = molecular target: T1, GST–PPARγ fusion protein (purified …); test: FRET or BRET; homogeneous TR-FRET as a1, 12-concentration dose–response of muraglitazar; the EC50 is of the compound; delta ratio in % of the reference compound at 10 μM (RO4899100 for PPARα, edaglitazone for PPARγ); conditions: both partners purified
[13] = molecular target: T2, GST–PPARα fusion protein (purified ligand binding domain of PPARα); test: FRET or BRET; homogeneous TR-FRET as a1, 12-concentration dose–response of tesaglitazar; the EC50 is of the compound; delta ratio in % of the reference compound at 10 μM (RO4899100 for PPARα, edaglitazone for PPARγ)
[14] = molecular target: T2, GST–PPARα fusion protein (purified ligand binding domain of PPARα); test: FRET or BRET; homogeneous TR-FRET as a1, 12-concentration dose–response of edaglitazone; the EC50 is of the compound; delta ratio in % of the reference compound at 10 μM (RO4899100 for PPARα, edaglitazone for PPARγ)
[15] = molecular target: T1, GST–PPARγ fusion protein (purified …); test: FRET or BRET; homogeneous TR-FRET as a1, 12-concentration dose–response of RO4899100; the EC50 is of the compound; delta ratio in % of the reference compound at 10 μM (RO4899100 for PPARα, edaglitazone for PPARγ); conditions: both partners purified

| Binder | EC50 of edaglitazone for recruitment [1] | EC50 of rosiglitazone for recruitment [2] | delta ratio with rosiglitazone [2] | EC50 of aleglitazar for recruitment [3] | delta ratio with aleglitazar [3] | EC50 of RO4899100 for recruitment [4] | EC50 of rosiglitazone for recruitment [5] | EC50 of aleglitazar for recruitment [6] | EC50 of farglitazar for recruitment [7] | EC50 of pioglitazone for recruitment [8] | EC50 of muraglitazar for recruitment [9] | delta ratio with muraglitazar [9] | EC50 of fenofibric acid for recruitment [10] | delta ratio with fenofibric acid [10] | EC50 of tesaglitazar for recruitment [11] | EC50 of muraglitazar for recruitment [12] | EC50 of tesaglitazar for recruitment [13] | EC50 of RO4899100 for recruitment [15] | also measured |
| --- | --- | --- | --- | --- | --- | --- | --- | --- | --- | --- | --- | --- | --- | --- | --- | --- | --- | --- | --- |
| {Biotin-Ahx}-DSKYSQTSHKLVQLLTTTAEQQLRH (source: synthetic peptide (Jerini or Biosynthan, Berlin)) [SRC1_M1 cofactor peptide (steroid receptor co-activator 1, motif 1)] | 38.1 nM | 2630 nM | 20% | 2.9 nM | 94% | 16.1 nM | 240 nM | 11 nM | 8.6 nM | 2260 nM | 186 nM | 74% | 4360 nM | 39% | 226 nM | 35.6 nM | 427 nM |  | EC50 of edaglitazone for recruitment [14]: 867 nM; delta ratio with edaglitazone [14]: 41% |
| {Biotin-Ahx}-TSGPQTPQAQQKSLLQQLLTE (source: synthetic peptide (Jerini or Biosynthan, Berlin)) [SRC1_M4 cofactor peptide (steroid receptor co-activator 1, motif 4)] |  |  |  |  |  |  | 23.5 nM | 3.4 nM | 3.3 nM | 222 nM |  |  |  |  | 25.5 nM | 6.1 nM |  | 1450 nM |  |
| {Biotin-Ahx}-CPSSHSSLTERHKILHRLLQEGSPS (source: synthetic peptide (Jerini or Biosynthan, Berlin)) [SRC1_M2 cofactor peptide (steroid receptor co-activator 1, motif 2)] | 9.8 nM |  |  |  |  |  | 18.5 nM | 3.2 nM | 3.8 nM | 196 nM |  |  |  |  | 24.4 nM | 5.7 nM |  | 2080 nM |  |
| {Biotin-Ahx}-LDASKKKESKDHQLLRYLLDKDEKD (source: synthetic peptide (Jerini or Biosynthan, Berlin)) [SRC1_M3 cofactor peptide (steroid receptor co-activator 1, motif 3)] | 38.1 nM | 3070 nM | 21% | 2.4 nM | 53% | 4.9 nM | 241 nM | 11.3 nM | 12.1 nM | 2120 nM | 8.4 nM | 23% | 3450 nM | 47% | 196 nM | 37.4 nM | 111 nM |  | delta ratio with tesaglitazar [13]: 52% |
| {Biotin-Ahx}-GNTKNHPMLMNLLKDNPAQDF (thyroid hormone receptor-associated protein complex 220 kDa component (TRAP220), motif 2, residues 637-657; also called TRAP220_M2; TRAP220 M2; source: synthetic peptide (Jerini or Biosynthan, Berlin)) | 9.5 nM |  |  |  |  |  | 41.3 nM | 3.2 nM | 3.5 nM | 431 nM |  |  |  |  | 31.6 nM | 6.2 nM |  | 4410 nM |  |
| {Biotin-Ahx}-SGNLVPDAASKHKQLSELLRGGSGS (source: synthetic peptide (Jerini or Biosynthan, Berlin)) [CBP cofactor peptide (cAMP responsive element binding protein (CREB)-binding protein)] | 7.2 nM |  |  |  |  |  | 10.4 nM | 3.3 nM | 3 nM | 79.1 nM |  |  |  |  | 13.9 nM | 4.3 nM |  | 1990 nM |  |
